Results: US20020146777A1, “Canine parathyroid hormone 1 receptor” (priority 2000, published 2002)
“Also recorded” adds a separate entry of the source.

Tests used:
canine PTH1 receptor [1] = molecular target: T1, canine PTH1 receptor (Canis lupus familiaris, UniProt Q9TU31); experiment: Intracellular cAMP accumulation in CHO cells transiently transfected with canine PTH1; type: cell-based; conditions: peptide 10^-7 M, 15 minutes at 37° C.
T1 construct: A 1868 bp DNA fragment containing the complete coding region of canine PTH1 was generated by PCR; expressed in transfected cells; host or cells: CHO-K1 cells, transient transfection with canine PTH1-pCR3.1
T1 sequence (Q9TU31 29-595): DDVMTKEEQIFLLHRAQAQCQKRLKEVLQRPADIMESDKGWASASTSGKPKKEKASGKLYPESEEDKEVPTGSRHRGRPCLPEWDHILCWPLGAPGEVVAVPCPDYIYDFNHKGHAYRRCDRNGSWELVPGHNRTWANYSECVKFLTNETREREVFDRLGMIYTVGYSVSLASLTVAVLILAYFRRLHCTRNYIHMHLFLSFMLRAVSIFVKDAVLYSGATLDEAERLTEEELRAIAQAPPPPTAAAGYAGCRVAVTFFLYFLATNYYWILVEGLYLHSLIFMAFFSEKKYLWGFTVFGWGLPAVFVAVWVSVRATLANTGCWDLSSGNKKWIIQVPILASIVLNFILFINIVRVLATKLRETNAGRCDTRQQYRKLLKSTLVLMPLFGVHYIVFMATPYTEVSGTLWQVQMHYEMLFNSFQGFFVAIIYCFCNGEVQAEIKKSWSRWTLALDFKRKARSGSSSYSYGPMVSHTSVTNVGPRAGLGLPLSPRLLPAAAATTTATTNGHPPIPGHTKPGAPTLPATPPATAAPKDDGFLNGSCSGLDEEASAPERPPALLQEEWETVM
Procedure: (§1) CHO-K1 cells were purchased from ATCC (Rockville, Md.) and maintained in Dulbecco's modified Eagle's medium/F12 (DMEM/F12, Life Technologies, Gaithersburg, Md.) supplemented with 10% fetal calf serum (FCS, Gemini Bio-Products, Calabasas, Calif.). CHO cells were plated in 12 and 24-well plates (Becton Dickinson, Franklin Lakes, N.J.) at 1.6×10^6 cells/plate in DMEM/F12 supplemented with 10% FCS. 24 hours later, each plate of cells was transfected with 10 μg of the canine PTH1-pCR3.1 expression plasmid using Lipofectamine reagent (Life Technologies). Total volume of DNA-lipofectamine mix was 500 μl/well and 250 μl/well in the 12- and 24-well plates, respectively. After 5 hours, an equal volume of media supplemented with 20% FCS was added to each well and after 24 hours, the media was replaced with growth media. The cells were then allowed to grow for an additional 24 hours, at which time the cells in the 24-well plates were used in the PTH binding assay and the cells in the 12-well plates were used to determine receptor activation by measuring cAMP.
(§2) ^125I-human PTH 1-34 amide (2000 Ci/mmol) was purchased from Amersham (Arlington Heights, Ill.). Human PTH 1-34 and human PTHrP 1-34 were purchased from Peninsula Laboratories (San Carlos, Calif.). Canine PTH (1-34) and PTHrP (1-34) (Rosol, 1995) were custom synthesized by Princeton BioMolecules (Columbus, Ohio). Human aldosterone secretion inhibitory factor (1-35), used as a similarly sized non-specific peptide, was purchased from Sigma.
To measure stimulation of cAMP production, cells transiently transfected with canine PTH1 were rinsed once with test medium (serum-free DMEM/F12 containing 0.2 mM 3-isobutyl-1-methylxanthine (IBMX; Calbiochem, La Jolla, Calif.)), then preincubated with 1 ml/well test medium for 10 minutes at 37° C. This medium was removed and cells were incubated with test medium containing the indicated peptides (10^−7 M) for 15 minutes at 37° C. […] Upon thawing cAMP was measured using a commercially available ELISA kit (Cayman Chemical, Ann Arbor, Mich.).

canine PTH1 receptor [2] = molecular target: T1, canine PTH1 receptor; experiment: Whole cell 125I-human PTH (1-34) competition binding to canine PTH1 transiently transfected CHO cells; conditions: canine PTH1/pCR3.1 transiently transfected CHO cells, 2 hours on ice
Procedure: as §1, §2
Canine PTH1 transiently transfected CHO cells in 24-well plates were subjected to whole cell human ^125I-PTH (1-34) competition binding. Culture media was removed, cell monolayers washed once each with ice-cold Dulbecco's phosphate buffered saline (Life Technologies) and ice-cold assay buffer (AB; 50 mM Tris-HCl, 100 mM NaCl, 2 mM CaCl2, 5 mM KCl, 0.5% heat inactivated FCS (Life Technologies), and 5% heat-inactivated horse serum (Life Technologies), pH 7.7). Subsequent to adding 225 μl of AB to each well, 25 μl of 10x peptide (10^−4- […]) in AB containing 800 cpms/μl of ^125I-human PTH (1-34) was added to each of three wells. Plates were incubated for 2 hours on ice, binding mix removed by aspiration, washed 2x with ice-cold assay AB, cells solubilized in 1% SDS and total bound counts determined. Percent bound ^125I-PTH (1-34) was calculated using the following equation: [formula]

intracellular cAMP accumulation (PTH1 activation) (canine PTH1 receptor [1]) | binding to canine PTH1 (displacement of 125I-hPTH (1-34)) (canine PTH1 receptor [2]; listed as canine PTH) | binding to canine PTH1 (displacement of 125I-hPTH (1-34)) (canine PTH1 receptor [2]; listed as canine PTHrP) | binding to canine PTH1 (displacement of 125I-hPTH (1-34)) (canine PTH1 receptor [2]; listed as canine/human parathyroid hormone related peptide (PTHrP) (1-34)) | binding to canine PTH1 (displacement of 125I-hPTH (1-34)) (canine PTH1 receptor [2]; listed as Human PTH) | Substance | binding to canine PTH1 (displacement of 125I-hPTH (1-34)) (canine PTH1 receptor [2])
increase in intracellular cAMP | specific binding |  |  |  | canine PTH (1-34): Canine parathyroid hormone fragment 1-34, custom synthesized by Princeton BioMolecules (SVSEIQFMHNLGKHLSSMERVEWLRKKLQDVHNF) | specific displacement; also recorded: high affinity binding
increase in intracellular cAMP |  | specific binding | specific displacement |  | canine/human PTHrP (1-34): Canine/human parathyroid hormone related peptide fragment 1-34 | high affinity binding
increase in intracellular cAMP |  |  |  | specific binding | human PTH (1-34): Human parathyroid hormone fragment 1-34, purchased from Peninsula Laboratories | specific displacement; also recorded: high affinity binding
